Source: patent publication US20120316071A1 (published 2012)
One block for each binder: values may come before it.

Assays:
[1] = target: T1, rHuman CD44/Fc Chimera, CF (R&D Systems Cat#3660-CD) (human, UniProt P16070 21-220); assay: MSD multispot ECL, antigen spotted on plate, Fab 11 nM; blank spot 212
T1 construct: Bought from R&D Systems; not shown: Fc of the bought chimera

[2] = target: T2, Recombinant Human DLL4 (R&D Systems Cat#1506-D4/CF) (human, UniProt Q9NR61 27-524); assay: as above
T2 construct: Bought from R&D Systems; also called rHuman DLL4; delta-like protein 4

[3] = target: T3, rHuman HGF R/c-MET/Fc Chimera, CF (R&D Systems Cat#358-MT/CF) (human, UniProt P08581 25-932); assay: as above
T3 construct: Bought from R&D Systems; also called HGF R/Fc; hepatocyte growth factor receptor (HGF R/c-Met); not shown: Fc of the bought chimera

[4] = target: T4, rHuman Erythropoietin R/Fc Chimera, CF (R&D Systems Cat#963-ER) (human, UniProt P19235 25-250); assay: as above
T4 construct: Bought from R&D Systems; also called EPO R/Fc; Epo R/Fc chimera; not shown: Fc of the bought chimera
T4 sequence (looked up): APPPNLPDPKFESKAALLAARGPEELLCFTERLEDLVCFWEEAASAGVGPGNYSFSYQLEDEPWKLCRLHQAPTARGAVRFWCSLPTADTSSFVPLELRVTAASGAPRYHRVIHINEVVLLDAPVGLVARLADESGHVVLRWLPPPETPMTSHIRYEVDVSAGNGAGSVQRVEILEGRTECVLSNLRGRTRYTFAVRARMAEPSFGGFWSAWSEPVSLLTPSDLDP

[5] = target: T5, rHuman Notch-1/Fc Chimera, CF (R&D Systems Cat#3647-TK) (human, UniProt P46531 19-526); assay: as above
T5 construct: Bought from R&D Systems; not shown: Fc of the bought chimera

[6] = target: T6, rHuman IGF-1 sR, (IGF-1 sR), CF (R&D Systems Cat#391-GR) (human, UniProt P08069 31-932); assay: as above
T6 construct: Bought from R&D Systems and called a soluble receptor; also called insulin-like growth factor-1 soluble receptor

[7] = target: T7, rHuman P-Cadherin/Fc Chimera, CF (R&D Systems Cat#861-PC) (human, UniProt P22223 108-654); assay: MSD multispot ECL, antigen spotted on plate, Fab 352.5 nM; blank spot 494
T7 construct: Bought from R&D Systems; not shown: Fc of the bought chimera

[8] = target: T8, rHuman EGF R/Fc Chimera, CF (R&D Systems Cat#344-ER) (human, UniProt P00533 25-645); assay: as above
T8 construct: Bought from R&D Systems; also called epidermal growth factor receptor (EGF R); not shown: Fc of the bought chimera

[9] = target: T4, rHuman Erythropoietin R/Fc Chimera, CF …; assay: as above
[10] = target: T5, rHuman Notch-1/Fc Chimera, CF (R&D …); assay: as above
[11] = target: T6, rHuman IGF-1 sR, (IGF-1 sR), CF (R&D …); assay: as above
[12] = target: T9, rHuman CD44/Fc Chimera, CF (R&D Systems Cat#3660-CD) (human, UniProt P16070 21-220); assay: MSD multispot ECL, antigen spotted, Fab 2383 nM; blank spot 344
T9 construct: Bought reagent

[13] = target: T10, Recombinant Human DLL4 (R&D Systems Cat#1506-D4/CF) (human, UniProt Q9NR61 27-524); assay: as above
T10 construct: Bought recombinant protein; also called rHuman DLL4; delta-like protein 4

[14] = target: T11, rHuman EGF R/Fc Chimera, CF (R&D Systems Cat#344-ER) (human, UniProt P00533 25-645); assay: as above
T11 construct: Bought reagent; also called epidermal growth factor receptor

[15] = target: T12, rHuman IGF-1 sR, (IGF-1 sR), CF (R&D Systems Cat#391-GR) (human, UniProt P08069 31-932); assay: as above
T12 construct: Bought soluble receptor; also called insulin-like growth factor-1 soluble receptor

[16] = target: T13, rHuman Notch-1/Fc Chimera, CF (R&D Systems Cat#3647-TK) (human, UniProt P46531 19-526); assay: as above
T13 construct: Bought reagent

[17] = target: T14, rHuman HGF R/c-MET/Fc Chimera, CF (R&D Systems Cat#358-MT/CF) (human, UniProt P08581 25-932); assay: as above
T14 construct: Bought reagent; also called HGF R/Fc; hepatocyte growth factor receptor

[18] = target: T15, rHuman ErbB2/Fc Chimera, CF (R&D Systems Cat#1129-ER) (human, UniProt P04626 23-652); assay: as above
T15 construct: Bought reagent; also called human epidermal growth factor 2 receptor

[19] = target: T16, rHuman Erythropoietin R/Fc Chimera, CF (R&D Systems Cat#963-ER) (human, UniProt P19235 25-250); assay: as above
T16 construct: Bought reagent; also called EPO R/Fc; Epo R
T16 sequence (looked up): T4 sequence (looked up)

ECL signal [1]: 296
ECL signal [2]: 254
ECL signal [3]: 268
ECL signal [4]: 1820
ECL signal [5]: 404
ECL signal [6]: 289
ECL signal [7]: 649
ECL signal [8]: 769
ECL signal [9]: 4100
ECL signal [10]: 715
ECL signal [11]: 528
B1: Fab VH1-46_IGHD3-10*01_IGHJ4*01 & B3_IGKJ1*01 (Fab, V domains shown)
VH: QVQLVQSGAEVKKPGASVKVSCKASGYTFTSYYMHWVRQAPGQGLEWMGIINPSGGSTSYAQKFQGRVTMTRDTSTSTVYMELSSLRSEDTAVYYCAREYYYGSGSYYNDYFDYWGQGTLVTVSS
VL: not shown
notes: Tested as a Fab made in E. coli; VH was cloned into Plasmid A (CH1 constant region, His6 and Flag tags); The kappa VL was cloned into Plasmid C (kappa CL)

ECL signal [12]: 559 ECL signal
ECL signal [13]: 11800 ECL signal
ECL signal [14]: 621 ECL signal
ECL signal [15]: 527 ECL signal
ECL signal [16]: 690 ECL signal
ECL signal [17]: 762 ECL signal
ECL signal [18]: 454 ECL signal
ECL signal [19]: 658 ECL signal
B2: Fab VH1-46_IGHD6-6*01_IGHJ1*01 & L6_IGKJ1*01 (Fab, V domains shown)
VH: QVQLVQSGAEVKKPGASVKVSCKASGYTFTSYYMHWVRQAPGQGLEWMGIINPSGGSTSYAQKFQGRVTMTRDTSTSTVYMELSSLRSEDTAVYYCAREEYSSSSAEYFQHWGQGTLVTVSS
VL: not shown
notes: Only variable domains are tied to the molecule; Tested as a Fab made in E. coli: heavy chain from Plasmid A (CH1 constant region, His6 and Flag tags), kappa light chain from Plasmid C (kappa CL); also called parent Hit Fab against DLL4; VH1-46_IGHD6-6*01_IGHJ1*01 & L6_IGKJ1*01 (parental)
